Measured values published in PMC10589346, “Structural basis for recruitment of TASL by SLC15A4 in human endolysosomal TLR signaling” (Nature Communications, 2023).

Columns and labels:
[1] = biological target: T1, human SLC15A4 with C-terminus flag-tag (co-expressed with TASL(1–20)-EGFP for cryo-EM) (human, UniProt Q8N697 1-577, N-glycosylation at N436); test: cryo-EM structure; SLC15A4-Flag and TASL(1–20)-EGFP-twin Strep co-expressed in HEK293F, complex purified by Strep-Tactin and SEC; 25 mM HEPES pH 7.4, 150 mM NaCl, 0.003% LMNG, 0.0003% CHS; 10–15 mg/ml; 3.03 Å, no symmetry imposed; conditions: both partners purified
T1 construct: human SLC15A4 (solute carrier family 15 member 4, PHT1), codon-optimized full-length cDNA, Uniprot Q8N697; pcDNA3.1 vector; residues 1–31 not visible in the map; also called PHT1; Solute carrier family 15 member 4; source: HEK293F, co-transfected with TASL(1–20)-EGFP, complex purified (Strep-Tactin, SEC) in LMNG/CHS; not shown: Flag, C-terminal, kept

[2] = biological target: the molecule itself; test: cryo-EM structure; SLC15A4-ALFA tag co-expressed with ALFA nanobody in HEK293F, complex purified (Strep-Tactin, SEC) in LMNG/CHS; monomeric and dimeric particles found, monomer solved at 3.25 Å
[3] = biological target: the molecule itself; test: cryo-EM structure; apo SLC15A4 (twin Strep-tag) from HEK293F in LMNG/CHS micelles; 25 mM HEPES pH 7.4, 150 mM NaCl; monomeric and dimeric particles found, dimer solved at 2.93 Å

T1 sequence (Q8N697 whole entry, the tested form may be a part): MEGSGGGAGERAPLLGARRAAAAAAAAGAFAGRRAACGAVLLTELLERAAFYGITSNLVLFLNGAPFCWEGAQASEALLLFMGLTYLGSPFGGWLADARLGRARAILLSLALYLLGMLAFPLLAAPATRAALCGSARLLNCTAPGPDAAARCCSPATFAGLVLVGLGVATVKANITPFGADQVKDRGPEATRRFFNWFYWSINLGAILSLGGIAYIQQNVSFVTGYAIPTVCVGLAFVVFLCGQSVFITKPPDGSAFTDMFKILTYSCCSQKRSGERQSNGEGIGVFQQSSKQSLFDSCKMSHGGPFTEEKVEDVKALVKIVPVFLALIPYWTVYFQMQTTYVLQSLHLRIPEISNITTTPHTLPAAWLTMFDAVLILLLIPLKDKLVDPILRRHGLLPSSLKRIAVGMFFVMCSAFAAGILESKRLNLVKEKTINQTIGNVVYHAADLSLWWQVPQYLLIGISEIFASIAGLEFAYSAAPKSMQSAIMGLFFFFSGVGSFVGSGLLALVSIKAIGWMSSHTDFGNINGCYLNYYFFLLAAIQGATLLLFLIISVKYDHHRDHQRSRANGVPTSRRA

B1: TASL(1–20)-EGFP with C-terminus twin Strep-tag (domain or fragment, human, UniProt Q9HAI6 1-20, looked up)
chain: MLSEGYLSGLEYWNDIHWSC
notes: pCAG vector; also called CXorf21; source: HEK293F, co-transfected with SLC15A4-Flag, complex purified (Strep-Tactin, SEC) in LMNG/CHS; not shown: EGFP, C-terminal, kept; twin Strep-tag, C-terminal, kept
stoichiometry N [1]: 1

B2: human SLC15A4 with the 253–303 residues replaced by an ALFA tag (natural protein)
chain: not shown
modifications: N-glycosylation at N436
notes: human SLC15A4, Uniprot Q8N697, from the start to residue 252; ALFA tag, put in place of residues 253–303 (loop between TM6 and TM7); human SLC15A4, Uniprot Q8N697, from residue 304 to the end; The complex was purified on Strep-Tactin by a 'similar protocol'; also called ALFA tagged SLC15A4; SLC15A4-ALFA tag; source: HEK293F, co-transfected with ALFA nanobody, complex purified (Strep-Tactin, SEC) …
binding result [2]: binds

B3: human full-length SLC15A4 with C-terminus tandem twin Strep-tag (natural protein)
chain: not shown
modifications: N-glycosylation at N436
notes: human SLC15A4 (solute carrier family 15 member 4, PHT1), codon-optimized full-length cDNA, Uniprot Q8N697; also called apo SLC15A4; C-terminal strep-tagged SLC15A4; source: HEK293F, transfected, purified (Strep-Tactin, SEC) in LMNG/CHS; also co-expressed in HEK293F with TASL(1–20&207–301)-Flag; not shown: twin Strep-tag, C-terminal, kept
stoichiometry N [3]: 2
